Results taken from US20260234241A1.
Read-outs that look alike come from different tables or passages of the source.

What was measured:
[1] = molecular target: human BCMA (on cells) (human) (UniProt Q02223); experiment: FACS on human BCMA-CHOK1 cells
[2] = molecular target: human BCMA (on cells) (human) (UniProt Q02223); experiment: FACS on human BCMA-CHOK1 cells; remark: listed apart in the source
[3] = molecular target: human GPRC5D (human) (UniProt Q9NZD1); experiment: FACS on human GPRC5D-CHOK1 cells
[4] = molecular target: cynomolgus monkey BCMA (on cells) (cynomolgus monkey); experiment: FACS on cynomolgus BCMA-CHOK1 cells
[5] = molecular target: cynomolgus monkey BCMA (on cells) (cynomolgus monkey); experiment: FACS on cynomolgus BCMA-CHOK1 cells; remark: listed apart in the source
[6] = molecular target: cynomolgus monkey GPRC5D (cynomolgus monkey); experiment: FACS on cynomolgus GPRC5D-CHOK1 cells
[7] = molecular target: cynomolgus monkey GPRC5D (cynomolgus monkey); experiment: FACS on cynomolgus GPRC5D-CHOK1 cells; remark: listed apart in the source
[8] = molecular target: human GPRC5D (human) (UniProt Q9NZD1); experiment: FACS on NCI-H929 cells (GPRC5D-expressing)
[9] = molecular target: cynomolgus monkey CD3 (on cyno PBMCs) (cynomolgus monkey) (UniProt Q95LI5); experiment: FACS on cyno PBMCs
[10] = molecular target: human CD3 (on Jurkat cells and human PBMCs) (human) (UniProt P07766); experiment: FACS on human PBMCs
[11] = molecular target: human CD3 (on Jurkat cells and human PBMCs) (human) (UniProt P07766); experiment: FACS on Jurkat cells
[12] = molecular target: soluble BCMA; experiment: cell-based or functional assay
[13] = molecular target: human BCMA (on cells) (human) (UniProt Q02223); experiment: FACS on NCI-H929 cells (express BCMA and GPRC5D)
[14] = molecular target: human BCMA (on cells) (human) (UniProt Q02223); experiment: FACS on RPMI8226 cells (express BCMA and GPRC5D)
[15] = molecular target: NCI-H929 tumor cells expressing the dual targets BCMA and GPRC5D; experiment: FACS on NCI-H929 cells (express BCMA and GPRC5D)
[16] = molecular target: RPMI8226 tumor cells expressing the dual targets BCMA and GPRC5D; experiment: FACS on RPMI8226 cells (express BCMA and GPRC5D)

human GPRC5D (human), sequence (Q9NZD1 whole entry): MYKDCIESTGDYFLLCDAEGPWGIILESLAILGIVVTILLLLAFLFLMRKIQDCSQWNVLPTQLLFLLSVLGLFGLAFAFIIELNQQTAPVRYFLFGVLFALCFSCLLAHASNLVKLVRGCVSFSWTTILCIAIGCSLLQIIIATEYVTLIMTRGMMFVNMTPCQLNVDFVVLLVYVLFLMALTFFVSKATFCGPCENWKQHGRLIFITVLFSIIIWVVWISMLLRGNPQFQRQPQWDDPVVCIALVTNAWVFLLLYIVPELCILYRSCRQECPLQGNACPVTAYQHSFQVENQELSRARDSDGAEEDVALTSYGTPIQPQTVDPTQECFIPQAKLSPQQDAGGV
human BCMA (on cells) (human), sequence (Q02223 whole entry): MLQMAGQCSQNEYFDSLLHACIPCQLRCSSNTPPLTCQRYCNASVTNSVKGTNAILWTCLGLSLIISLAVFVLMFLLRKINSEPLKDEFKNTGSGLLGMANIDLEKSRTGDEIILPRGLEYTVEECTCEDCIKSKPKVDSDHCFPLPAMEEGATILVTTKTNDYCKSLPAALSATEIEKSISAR
human CD3 (on Jurkat cells and human PBMCs) (human), sequence (P07766 23-207): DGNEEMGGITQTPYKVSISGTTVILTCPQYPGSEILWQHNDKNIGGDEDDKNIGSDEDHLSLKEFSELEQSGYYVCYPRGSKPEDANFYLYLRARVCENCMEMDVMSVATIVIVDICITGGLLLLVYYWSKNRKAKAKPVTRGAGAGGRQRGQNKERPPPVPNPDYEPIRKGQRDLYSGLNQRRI
cynomolgus monkey BCMA (on cells) (cynomolgus monkey), sequence (Q02223 other isoform, or with tags, fused parts or gaps): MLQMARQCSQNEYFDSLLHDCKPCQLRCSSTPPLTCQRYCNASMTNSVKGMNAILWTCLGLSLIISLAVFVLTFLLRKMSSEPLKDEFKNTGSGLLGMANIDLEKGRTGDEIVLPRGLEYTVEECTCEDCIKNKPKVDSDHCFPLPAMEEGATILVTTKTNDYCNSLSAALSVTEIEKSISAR
cynomolgus monkey GPRC5D (cynomolgus monkey), sequence (Q9NZD1 other isoform, or with tags, fused parts or gaps): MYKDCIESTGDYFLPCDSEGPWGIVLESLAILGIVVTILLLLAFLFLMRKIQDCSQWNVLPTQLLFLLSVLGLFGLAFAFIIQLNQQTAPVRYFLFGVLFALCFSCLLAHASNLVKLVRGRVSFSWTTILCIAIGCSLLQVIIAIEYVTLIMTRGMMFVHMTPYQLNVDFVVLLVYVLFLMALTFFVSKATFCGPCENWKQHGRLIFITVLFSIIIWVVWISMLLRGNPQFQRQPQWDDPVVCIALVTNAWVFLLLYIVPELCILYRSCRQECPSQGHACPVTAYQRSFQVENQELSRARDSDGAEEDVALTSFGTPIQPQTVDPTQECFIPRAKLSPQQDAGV
cynomolgus monkey CD3 (on cyno PBMCs) (cynomolgus monkey), sequence (Q95LI5 22-198): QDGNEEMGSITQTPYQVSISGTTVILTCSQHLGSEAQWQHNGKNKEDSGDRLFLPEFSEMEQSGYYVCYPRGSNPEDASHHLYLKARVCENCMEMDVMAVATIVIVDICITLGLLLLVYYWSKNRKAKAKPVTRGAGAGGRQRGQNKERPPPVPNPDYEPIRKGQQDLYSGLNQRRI

Top MFI [1] | Top MFI [2] | Top MFI [3] | Top MFI [4] | Top MFI [5] | Top MFI [6] | Top MFI [7] | Top MFI [8] | Top MFI [9] | Top MFI [10] | Top MFI [11] | Fold change of TDCC EC50 on NCI-H929 cells in the presence of 2500 ng/ml soluble BCMA [12] [fold] | Ratio (EC50) of TDCC on NCI-H929 cells, 2.5 ug/ml against 0 ug/ml soluble BCMA [12] [fold] | fold change of the TDCC EC50 on NCI-H929 cells in the presence of 2500 ng/ml soluble BCMA [12] [fold] | Top MFI [13] | Top MFI [14] | Top MFI [15] | Top MFI [16] | Substance
89.1 | 232 | 36 | 82.6 | 382 | 85 | 1840 | 178 | – | – | – | – | – | – | – | – | – | – | IgG1 AA (antibody)
2280 | – | 160 | 1770 | – | – | – | – | 2060 | 672 | 825 | 25 | 21 | 25 | 669 | 169 | – | – | Teclistamab analogue (BCMA/CD3) (bispecific antibody)
119 | – | 100 | – | – | – | – | – | 93.3 | 96.1 | 77.6 | – | – | – | – | – | 104 | 112 | hIgG1 LALA isotype (antibody)
